Experiment: label from the status in PepcDB records

| Sequence | protein production |
| --- | --- |
| MIKTHYAKLALSAFAVSILASCANLGMTGVADGNNSEQTYLGQINYQDQTITKASAKKLNREIDLQRASQLTLWAMPMVGMYQSYNSTIALFDLQEGDAPIIGLHEGYDGVYPFLTANVTTPYTISLVDLSETGPYVVNIPAGSIFGVANNAWQEPIKEIGSGNKETLLFVGPGQEYPKDFDGEVIQSDTNQILYFYRVLGVGAEAEKLKTAVTAYKLSDVANPPQVKFVIYKPKASDADVTIATQPRGMAYWEVVNQYIQNEPMADRDRFFYAWLKDLGIEKGKAFNPTPYQKEILLEGVNTGMAMAQSLAFNKTKKKFSSSLYGSDSGWEGVLAGMDPKIDLDTYSMINERTAYTYEAVTTSAGMIVENPGHGSAYIGSYYDADGNALMGGKNYTLHIEPNPPAANFWSITVYDIKNRLIIRNEIKRSDLSSRSESLVMNSDGSVDLYFGPEAPEGKEGNWIQSNDGESYFMYLRLYGPEQEYFDQTYPMNKIDKTK | failed |
| MILKSSIDRLLQTIDIVEVISSYVNLRKSGSSYMACCPFHEERSASFSVNQIKGFYHCFGCGASGDSIKFVMAFEKLSFVEALEKLAHRFNIVLEYDKGVYYDHKEDYHLLEMVSSLYQEELFNAPFFLNYLQKRGLSLESIKAFKLGLCTNRIDYGIENKGLNKDKLIELGVLGKSDNDQKTYLRFLDRIMFPIYSPSAQVVGFGGRTLKEKAAKYINSPQSKLFDKSSLLYGYHLAKEHIYKQKQVIVTEGYLDVILLHQAGFKNAIATLGTALTPSHLPLLKKGDPEILLSYDGDKAGRNAAYKASLMLAKEQRRGGVILFENNLDPADMIANGQIETLKNWLSHPMAFIEFVLRRMADSYLLDDPLEKDKALKEMLGFLKNFSLLLQSEYKPLIATLLQAPLHVLGIRERVSFQPFYPKTEKPNRPQRFAHVSSAPSLEFLEKLVIRYLLEDRSLLDLAVGYIHSGVFLHKKQEFDALCQEKLDDPKLVALLLDANLPLKKGGFEKELRLLILRYFERQLKEIPKSSLPFSEKMICLKKARQAIMKLKQGELVAI | failed |
| SGQAYIGTYPNGDKIFVKINTTPILAALAKEQIAPQLLWAKRLGNGDMMSAQEWLDGRLLTRADMNSKQIIQVLLQMHKSKPLVNQLLQLNYKVETPLDLLLSWERSAPYQISENAYLQSVVAEMKRNLPDFKKDYATIVHGDVRHSNWVITTSGLVYLVDWDSVRVTDRMYDVAHILSHYIPHTRWAEWLSYYGYKQNTKVFQKIKWYGQLSYLSQILKYYENR | failed |
| MSEQKEDLFKPVGEAAAEVEDESIAEQNKANDGVKLTGAQDAMGHPVQEIESLCMNCGKNGTTRLLLTSIPYFREIIIMSFDCPHCGFKNCEIQPASQIQEKGSRYVLKVECREDFNRQVIKSETATCKFVELDIEIPAKRGQLTTVEGLLSEMIDDLSQDQEMRKSIDEALYKKIDDFIQKVKSYINCEPNTIPITFILDDPAGNSWIEYKPGEPQHKWSHTQYVRTDEQNVQVGIITRDQLEQRRQEQLKQLANRERNPSESVKVGSANPQFLSDATDIENFNNEVQTFRASCPSCTQECETHMKPVNIPHFKEVIIMSTVCDHCGYKSNEVKTGGAIPDKGRRITLYCDDAADLSRDILKSETCSMVIPELHLDIQEGTLGGRFTTLEGLLRQVYEELESRIFTQTSDSMDEATKARWVEFFAKLKEAIAGKVKFTVIMEDPLAGSYIQNVYAPDPDPNMTIEDYERTKEQNEDLGLSDIKVE | failed |
| MDQNTTPAPGLRETKKRETRQLISDHATRLFIERGFEHTTIAEIADAARVAKKTVTNYFPRKEDLALDHQDEFVAALAATVTARGAGETPLTALRHAFLAAVAAQDPVAGFAGQAFTRMIADSPTLTACLRGLHDRREEALTAALAGTTDTPPDDITPRTAAALLGGVHRVLFNRIQELTLAGRATPEIAEVLAREAPRAFDLLTPALAEYGRRP | not failed |
| MSLSLPLFYAPDIEQSDRLPDDEAGHILRVLRMQAGDRLRLTDGRGSFFDAVIETADRKSCYVSVCGQESWQKPWRDRITIAIAPTKQSERMEWMLEKLVEIGVDEVVFIESEHSERRRIKAERLERIAISAMKQSLKASFPVIRVNIPIQTVIADTPKAAVRLIAYVDEAVRAEITQGRGYPSDFYHVGQDVLILIGPEGDFSPSEVESALLAGFAPVSLGESRLRTETAGLVACQWIHTLQACCRIGEGHHHHHH | not failed |
| MIKSTNIQAIGSGIMHQINNVYSLTPLSLPMELTPSCNEFYLKTWSEWEKNGTPGEQRNIAFNRLKICLQNQEAELNLSELDLKTLPDLPPQITTLEIRKNLLTHLPDLPPMLKVIHAQFNQLESLPALPETLEELNAGDNKIKELPFLPENLTHLRVHNNRLHILPLLPPELKLLVVSGNRLDSIPPFPDKLEGLALANNFIEQLPELPFSMNRAVLMNNNLTTLPESVLRLAQNAFVNVAGNPLSGHT | failed |
| MSRNHLPFSAGELEALPLFRFVPLECIEGILEHSCVVSLERGERFEPAGPLGRTIHLILDGRLALYYDVRERDDTPLHLERGDIVGQSLVSGEPEVPCTLVAAEETRLMILEEDLIWSLAQASHAAACNLLGILLRGRGGSPQESFSGTVRDYALRNQAVVDPLTGFQSRRWLEGILSRQVDRFTANGRPLSLVMIDIDGFRAFNERHGRAGGDRALHDVAKTLRNSLRPGELVARYGGDTFAVLLPETEPSTAWMIADRLRQRLMRTVIDMGDGAMLPPLSISAGVAEATPGIDGPTIADNALAALDRAKAAGGNTVSR | failed |
| MSQLPAWPRITRESTAMYHLRVPQTEEELERYYQFRWEMLRKPLHQPKESERDGWDALAHHQIVVDEEGNLVAVGRLYINADNEASIRFMAVHPSVQDKGLGTLMAMTLESVARQEGVKRVTCSAREDAVEFFAKLGFVNQGEITTPTTTPIRHFLMIKPVASLDDILHRGDWCGQLQQAWYEHIPLSEKMGVRIQQYTGQKFITTMPETGNQNPHHTVFAGSLFSLATLTGWGLIWLMLRERHLGGTIILADAHIRYSKPISGKPNAVADLGSLSGDLDRLARGKKARVQLQVELLGGETAGAIFEGIYIVLPAKPFGPYEEGGNEEE | failed |
| MEGCVSNIMICNLAYSGKLDELKERILADKSLATRTDQDSRTALHWACSAGHTEIVEFLLQLGVPVNDKDDAGWSPLHIAASAGRDEIVKALLVKGAHVNAVNQNGCTPLHYAASKNRHEIAVMLLEGGANPDAKDHYDATAMHRAAAKGNLKMVHILLFYKASTNIQDTEGNTPLHLACDEERVEEAKFLVTQGASIYIENKEEKTPLQVAKGGLGLILKRLAEGEEASM | not failed |
| MSAPAPRSPAGGHEARATARALTLLAIGAGFGFLWLARDLLVPTALGVTLALSVHPVVAALQRRRVSRTVASVAGTLLAVAVLVGIGYVLWGRIAAFADELPGYEGRLREAAAGIRRHAAHLQAQSEQLVQAPRRPGEVKVQEGVPWGSLLVGTAQGALTFAGQATVVVFVLYFTLAEGPRFRTKLLAWADRRPRGRARVLAALEELHRDVEQYMLNRVALNAALGVVTWAVYALYGLEHAAIWGITTALLHFIPYVGPALGLFLPAAMALLQYGTAKDVALVTAIYLVLVNVQGNVVDPLFLGKQLRLSPLVVFLGSLFWFWLWGPVGLFLAVPLLSTVRIVCRHLPRYRVVASLLAE | failed |
| IKTRGRNLYSYEGKIGKAVDDIKSGQEGYVIVEGEYWRALALEDIKKNEDIVVVKREGMKLMVRKKVSDIETSRV | failed |
| MSRDPILSLPWPDARPLPDTFFDRDALLVARELLGKVIRHRQGNLWLAARIIETEAYYLEEKGSHASLGYTEKRKALFLDGGHIYMYYARGGDSLNFSAGGPGNAVLIKSGHPWLDRISDHTALERMQSLNPDSQGRPREIGRLCAGQTLLCKAMGLKVPEWDAQRFDPQRLFVDDVGERPSQVIQAARLGIPKGRDEHLPYRFVDAAFAAFCTRNPLRRGQVAGRDYHLLGHQDPHLQ | failed |
| MSKVLVLKSSILAGYSQSGQLTDYFIEQWREKHVADEITVRDLAANPVPVLDGELVGAMRPGDAPLTPRQQDALALSDELIAELKAHDVIVIAAPMYNFNIPTQLKNYFDLIARAGITFRYTEKGPEGLVTGKRAVVLSSRGGIHKDTPTDLIAPYLKVFLGFIGITDVNFVFAEGIAYGPEVAAKAQADAKAAIDSVVAA | not failed |
| MSLFGRLLSLLLAFVPLSICAAVNHLPVVGEDYVEIPDGRPFAPLAGKIEVVEIFGYTCPHCAHFDSKLQAWGARQAKDVRFTLVPAVFGGVWDPFARAYLAADVLGVAKRSHAAMFEAIHEKGSVPIQNVGPDELAVFYAGYGVQPDRFVATFNGPEVEKRFQAARAYALKVRPVGTPAIVVDGRYMVTGHDFDDTLRITDYLVSRERAASHGR | failed |
